B1: library; a variant is named by its letters at N, in order (parent)
chain: GAGACCGCAACTGAAAAGTTGTGGNNNNNATAGTGAGTCGCTGCCTGCAAAGACACAACT

± gives the standard deviation of the averaged measurements.

In the data set the parent is B1. The data set can be described thus: ligation selection enrichment (abundance after / before one-round selection) (fold); higher = more template-directed ligation activity. The note with it: with T7Psub CACGGAUGCUAAUACGACUCACUAUA; MgCl2 25 mM; 42 °C; 4 h; pH 8.5. As to the method:
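Lib-N5 ligase ribozyme library: five randomized core nucleotides (including the GGA motif of N8-1) within the fixed N8-1 ribozyme flanks, transcribed by T7 RNA polymerase with a 5'-triphosphate. The library (0.75 uM) was reacted with substrate T7Psub (6 uM) in 50 mM EPPS pH 8.5 with 25 mM MgCl2 at 42 C for 4 h. Ligated products were PAGE-purified, reverse transcribed and MiSeq sequenced; enrichment = abundance after selection / abundance before selection, with two independent replicates. The full transcript is built from the printed template flanks.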
As for GAGACCGCAACTGAAAAGTTGTGGAAAACATAGTGAGTCGCTGCCTGCAAAGACACAACT [AAAAC], the ligation selection enrichment is 0.17 ± 0.018. The figure for GAGACCGCAACTGAAAAGTTGTGGAAATTATAGTGAGTCGCTGCCTGCAAAGACACAACT [AAATT] is 0.446 ± 0.12; for GAGACCGCAACTGAAAAGTTGTGGAAATGATAGTGAGTCGCTGCCTGCAAAGACACAACT [AAATG] it is 0.495 ± 0.067. The figure for GAGACCGCAACTGAAAAGTTGTGGAAATAATAGTGAGTCGCTGCCTGCAAAGACACAACT [AAATA] is 0.18 ± 0.034; for GAGACCGCAACTGAAAAGTTGTGGAAATCATAGTGAGTCGCTGCCTGCAAAGACACAACT [AAATC] it is 0.171 ± 0.01.

In the case of GAGACCGCAACTGAAAAGTTGTGGGAACGATAGTGAGTCGCTGCCTGCAAAGACACAACT [GAACG], the ligation selection enrichment came to 0.626 ± 0.017. For the variant GAGACCGCAACTGAAAAGTTGTGGGAACAATAGTGAGTCGCTGCCTGCAAAGACACAACT [GAACA], the ligation selection enrichment worked out at 0.191 ± 0.024. The figure for GAGACCGCAACTGAAAAGTTGTGGGAACCATAGTGAGTCGCTGCCTGCAAAGACACAACT [GAACC] is 0.225 ± 0.032; for GAGACCGCAACTGAAAAGTTGTGGGAACTATAGTGAGTCGCTGCCTGCAAAGACACAACT [GAACT] it is 0.882 ± 0.31. For the variant GAGACCGCAACTGAAAAGTTGTGGTAATGATAGTGAGTCGCTGCCTGCAAAGACACAACT [TAATG], the ligation selection enrichment was 1.16 ± 0.27.

For the variant GAGACCGCAACTGAAAAGTTGTGGTAATAATAGTGAGTCGCTGCCTGCAAAGACACAACT [TAATA], the ligation selection enrichment was found to be 0.189 ± 0.0088. Consider GAGACCGCAACTGAAAAGTTGTGGTAATTATAGTGAGTCGCTGCCTGCAAAGACACAACT [TAATT], for which the ligation selection enrichment is 0.211 ± 0.098.

Regarding GAGACCGCAACTGAAAAGTTGTGGTAATCATAGTGAGTCGCTGCCTGCAAAGACACAACT [TAATC], the ligation selection enrichment stood at 0.111 ± 0.048. The figure for GAGACCGCAACTGAAAAGTTGTGGCAAATATAGTGAGTCGCTGCCTGCAAAGACACAACT [CAAAT] is 0.595 ± 0.18; for GAGACCGCAACTGAAAAGTTGTGGCAAACATAGTGAGTCGCTGCCTGCAAAGACACAACT [CAAAC] it is 0.135 ± 0.028; for GAGACCGCAACTGAAAAGTTGTGGCAAAAATAGTGAGTCGCTGCCTGCAAAGACACAACT [CAAAA] it is 0.131 ± 0.011. Take GAGACCGCAACTGAAAAGTTGTGGCAAAGATAGTGAGTCGCTGCCTGCAAAGACACAACT [CAAAG]: the ligation selection enrichment stood at 0.162 ± 0.03. The figure for GAGACCGCAACTGAAAAGTTGTGGAACCCATAGTGAGTCGCTGCCTGCAAAGACACAACT [AACCC] is 0.21 ± 0.032. For the variant GAGACCGCAACTGAAAAGTTGTGGAACCAATAGTGAGTCGCTGCCTGCAAAGACACAACT [AACCA], the ligation selection enrichment was 0.1955 ± 0.00066.

Turning to GAGACCGCAACTGAAAAGTTGTGGAAAGTATAGTGAGTCGCTGCCTGCAAAGACACAACT [AAAGT], the ligation selection enrichment is 0.147 ± 0.088. Under GAGACCGCAACTGAAAAGTTGTGGAAAGCATAGTGAGTCGCTGCCTGCAAAGACACAACT [AAAGC] stands 0.199 ± 0.038; under GAGACCGCAACTGAAAAGTTGTGGAAAGGATAGTGAGTCGCTGCCTGCAAAGACACAACT [AAAGG], 0.44 ± 0.026; under GAGACCGCAACTGAAAAGTTGTGGAAAGAATAGTGAGTCGCTGCCTGCAAAGACACAACT [AAAGA], 0.256 ± 0.0097. Take GAGACCGCAACTGAAAAGTTGTGGTACCCATAGTGAGTCGCTGCCTGCAAAGACACAACT [TACCC]: the ligation selection enrichment was 0.202 ± 0.003. Regarding GAGACCGCAACTGAAAAGTTGTGGTACCAATAGTGAGTCGCTGCCTGCAAAGACACAACT [TACCA], the ligation selection enrichment was determined as 0.184 ± 0.011. Under GAGACCGCAACTGAAAAGTTGTGGCAAGAATAGTGAGTCGCTGCCTGCAAAGACACAACT [CAAGA] stands 0.182 ± 0.036. Under GAGACCGCAACTGAAAAGTTGTGGCAAGGATAGTGAGTCGCTGCCTGCAAAGACACAACT [CAAGG] stands 0.2 ± 0.024. The figure for GAGACCGCAACTGAAAAGTTGTGGCAAGTATAGTGAGTCGCTGCCTGCAAAGACACAACT [CAAGT] is 0.157 ± 0.079; for GAGACCGCAACTGAAAAGTTGTGGCAAGCATAGTGAGTCGCTGCCTGCAAAGACACAACT [CAAGC] it is 0.137 ± 0.042; for GAGACCGCAACTGAAAAGTTGTGGTACACATAGTGAGTCGCTGCCTGCAAAGACACAACT [TACAC] it is 0.139 ± 0.042. For the variant GAGACCGCAACTGAAAAGTTGTGGTACATATAGTGAGTCGCTGCCTGCAAAGACACAACT [TACAT], the ligation selection enrichment turned out to be 0.578 ± 0.12. The figure for GAGACCGCAACTGAAAAGTTGTGGTACAAATAGTGAGTCGCTGCCTGCAAAGACACAACT [TACAA] is 0.211 ± 0.08; for GAGACCGCAACTGAAAAGTTGTGGTACAGATAGTGAGTCGCTGCCTGCAAAGACACAACT [TACAG] it is 0.393 ± 0.092; for GAGACCGCAACTGAAAAGTTGTGGGAAACATAGTGAGTCGCTGCCTGCAAAGACACAACT [GAAAC] it is 0.146 ± 0.044. GAGACCGCAACTGAAAAGTTGTGGGAAAAATAGTGAGTCGCTGCCTGCAAAGACACAACT [GAAAA]: the ligation selection enrichment was determined as 0.135 ± 0.02. Consider GAGACCGCAACTGAAAAGTTGTGGGAAAGATAGTGAGTCGCTGCCTGCAAAGACACAACT [GAAAG], for which the ligation selection enrichment came to 0.328 ± 0.021. For the variant GAGACCGCAACTGAAAAGTTGTGGGAAATATAGTGAGTCGCTGCCTGCAAAGACACAACT [GAAAT], the ligation selection enrichment was 0.55 ± 0.2. The figure for GAGACCGCAACTGAAAAGTTGTGGCAATTATAGTGAGTCGCTGCCTGCAAAGACACAACT [CAATT] is 0.343 ± 0.11; for GAGACCGCAACTGAAAAGTTGTGGCAATGATAGTGAGTCGCTGCCTGCAAAGACACAACT [CAATG] it is 0.249 ± 0.03.

As for GAGACCGCAACTGAAAAGTTGTGGCAATCATAGTGAGTCGCTGCCTGCAAAGACACAACT [CAATC], the ligation selection enrichment amounted to 0.136 ± 0.047.

Take GAGACCGCAACTGAAAAGTTGTGGCAATAATAGTGAGTCGCTGCCTGCAAAGACACAACT [CAATA]: the ligation selection enrichment is 0.143 ± 0.036. With GAGACCGCAACTGAAAAGTTGTGGGAATGATAGTGAGTCGCTGCCTGCAAAGACACAACT [GAATG], the ligation selection enrichment came out at 0.478 ± 0.011. The figure for GAGACCGCAACTGAAAAGTTGTGGGAATTATAGTGAGTCGCTGCCTGCAAAGACACAACT [GAATT] is 0.249 ± 0.099; for GAGACCGCAACTGAAAAGTTGTGGGAATCATAGTGAGTCGCTGCCTGCAAAGACACAACT [GAATC] it is 0.205 ± 0.079. The figure for GAGACCGCAACTGAAAAGTTGTGGGAATAATAGTGAGTCGCTGCCTGCAAAGACACAACT [GAATA] is 0.175 ± 0.0089.

The values above are taken from the supplement of paper PMC10219994.
